# Results as given in US20250283886A1.
# B1: S. elongatus ClpS2 (protein)
# chain: MSPQPDESVLSILGVPRPCVKKRSRNDAFVLTVLTCSLQAIAAPATAPGTTTTRVRQPYPHFRVIVLDDDVNTFQHVAECLLKYIPGMTGDRAWDLTNQVHYEGAATVWSGPQEQAELYHEQLRREGLTMAPLEAA
# Biological target: polypeptides with a terminal leucine residue
# Assay: single-molecule dwell time analysis, distribution of mean pulse durations, Leu; filtered 0.00s≤dur≤20.00s and magnitude above baseline > 15.0
binder,measurement,value
B1,mean pulse duration (value at the dashed line),0.35 s
